Measured values published in US20180036395A1, “DOSAGE AND ADMINISTRATION OF MONOSPECIFIC AND BISPECIFIC ANTI-IGR-1R AND ANTI-ERBB3 ANTIBODIES” (Merrimack Pharmaceuticals, Inc., priority 2012, published 2018).

What was measured:
[1] = test system: locally advanced or metastatic breast cancer; experiment: Treatment of patients with locally advanced or metastatic breast cancer; assay type: in vivo, human
Method: (§1) P4-G1-M1.3 is formulated in 20 mM histidine, 100 mM arginine-HCl, 3% sucrose, at pH 5.5 supplemented with 0.002-0.02% of Tween® 80 at concentration range 5-15 mg/mL. P4-G1-M1.3 is administered to patients at 6 mg/kg, 12 mg/kg, 20 mg/kg, 30 mg/kg, 40 mg/kg, 50 mg/kg or 60 mg/kg q7d, ql4d, q21d, or q28d with a loading dose of 12 mg/kg, 20 mg/kg, 40 mg/kg, 40 mg/kg or 60 mg/kg Everolimus is administered to patients at 2.5 mg, 5 mg, or 10 mg orally once a day or once every other day.
Patients with estrogen receptor positive or progesterone receptor positive or triple negative breast cancers that are locally advanced or metastatic, or with any of the tumor types listed in Examples 5-10, are treated with a combination of an effective amount of i) any of the mTOR inhibitors of the preceding examples (at doses as described therein), or with a pan-mTOR inhibitor (INK128, CC223, OSI207, AZD8055, AZD2014, or Palomid529) and ii) an effective amount of P4-G1-M1.3. Patients are dosed with P4-G1-M1.3 as described in Example 1. The dose of pan-mTOR inhibitor is the dose used in phase I or, preferably phase II or III clinical trials.
Postmenopausal women with estrogen receptor-positive locally advanced or metastatic breast cancer are treated with a combination of an effective amount of PI3K inhibitor (e.g., XL147 or BKM120) and an effective amount of P4-G1-M1.3. Patients are dosed with P4-G1-M1.3 as described in Example 1. XL147 is dosed at 25, 50, 100, or 200 mg orally once a day for 21 consecutive days. Alternately BKM120 is dosed at […] orally once a day for 28 consecutive days.
Women with estrogen or progesterone receptor positive locally advanced or metastatic breast cancer are treated with a combination therapy comprising or consisting of administration of an effective amount of an antihormonal therapy (such as tamoxifen, exemestane, letrozole or fulvestrant) and administration of an effective amount of P4-G1-M1.3. P4-G1-M1.3 is formulated and administered as described above. Antihormonal therapy is administered in accordance with manufacturer's directions.
Women with estrogen or progesterone receptor positive locally advanced or metastatic breast cancer are treated with a combination of an effective amount of PI3K/mTOR dual inhibitor NVP-BEZ235 and an effective amount of P4-G1-M1.3. Patients are dosed with P4-G1-M1.3 as described in Example 1. NVP-BEZ235 is given orally twice daily at doses of 400 mg, 600 mg, or 800 mg.
Women with locally advanced or metastatic breast cancer are treated with a combination of an effective amount of docetaxel (Taxotere®) and an effective amount of P4-G1-M1.3. Patients are dosed with P4-G1-M1.3 as described in Example 1. Patients are dosed with docetaxel at 25, 50, 75 or 100 mg/m^2 i.v. once every 3 weeks or per standard clinical practice.
Patients with metastatic breast cancer are treated with a combination of an effective amount of paclitaxel (Taxol®) or of eribulin and an effective amount of P4-G1-M1.3. Patients are dosed with P4-G1-M1 as described in Example 1. Patients are dosed per standard clinical practice for paclitaxel or eribulin.

[2] = test system: Ewing's sarcoma or metastatic pancreatic cancer; experiment: Treatment of patients with Ewing's sarcoma or metastatic pancreatic cancer; assay type: in vivo, human; settings: irinotecan or nanoliposomal irinotecan + P4-G1-M1.3
Method: as §1
Patients with Ewing's sarcoma or metastatic pancreatic cancer are treated with a combination of an effective amount of irinotecan (Camptosar®) or nanoliposomal irinotecan and an effective amount of P4-G1-M1.3. P4-G1-M1.3 is formulated and administered as described above (e.g., Example 1). Nanoliposomal irinotecan is given i.v. at 80 mg/m^2 or 120 mg/m^2 q3w. Camptosar® is administered per manufacturer's directions.

[3] = test system: HepG2 hepatocellular carcinoma cells; experiment: HepG2 quantitative western blotting; assay type: cell-based, human; settings: 2 hours or 6 hours, compared to either alone, FIG. 5
Method: Cells were treated with 500 nM P4-G1-M1.3, […] sorafenib or the combination for either 2 hours or 6 hours and quantitative western blotting was performed.
Buffer containing β-Mercaptoethanol (β-ME) is added and lysates are boiled for 5 minutes at 95° C. Approximately 40 μg of protein and two ladders (Invitrogen) are run on each well of an 18-well gel (BioRad). Gels are run at 150 volts constant for approximately 90 minutes and transferred to nitrocellulose membranes using the 8 minute transfer program of the iBlot® (Invitrogen) transfer system. Membranes are blocked in Odyssey® Blocking Buffer (Licor® Biosciences) for 1 hour at room temperature, and then incubated with primary antibodies overnight at 4° C. in 5% BSA in TBS-T. All antibodies are purchased from Cell Signaling and used at the recommended dilution. The following day membranes are washed 3×5 minutes each with TBS-T and then incubated with anti-Rabbit IgG—DyLight® 800 (Cell Signaling) or anti-Rabbit IRDye® 800 (Licor® Biosciences) at 1:10,000-15,000 in 5% milk in TBS-T for 1 hour at room temperature. Membranes were then washed 3×5 minutes each with TBS-T and scanned using the Licor® Odyssey® system (Licor® Biosciences). Intensities are quantified using Image Studio 2.0 and normalized to β-Actin levels. […]

B1: P4-G1-M1.3: anti-IGF-1R+anti-ErbB3 polyvalent bispecific antibody, IgG1-(scFv)2 (SEQ ID NO:148 and SEQ ID NO:149) (protein)
chain 1: EVQLLQSGGGLVQPGGSLRLSCAASGFLFSSYPMHWVRQAPGKGLEWVGSISPSGGATPYADSVKGRFTISRDNSKNTLYLQMNSLRPEDTAVYYCAKDFYNILTGNAFDKWGQGTSVTVSSASTGGGGSGGGGSGGGGSGGGGSDIQLTQSPSSLSASLGDRVTITCRASQGISSYLAWYQQKPGKAPKLLIYAGSTPQSGVPSRFSGSGSGTEFTLTISSLQPEDSGTYYCQQYWTWPLTFGGGTKVEIKRT
chain 2: EVQLVESGGGLVQPGRSLRLSCAASGFTFDDYAMHWVRQAPGKGLEWVSGISWNSGSTGYADSVKGRFTISRDNAKNSLYLQMNSLRAEDTALYYCARDLGYNQWLEGFDYWGQGTLVTVSSASTGGGGSGGGGSGGGGSGGGGSSSELTQDPAVSVALGQTVRITCQGDSLRSYYASWYQQKPGQAPVLVIYGKNNRPSGIPDRFSGSSSGNTASLTITGAQAEDEADYYCMSRDHPGNQWVFGGGTKVTVLG
modifications: Synthetic polypeptide:Anti-IGF-1R scFvs M76; Synthetic polypeptide:Anti-ErbB3 scFvs P6L
combinatorially enhanced outcome: treatment outcome ([1]; ER or PR positive breast cancer, NVP-BEZ235 + P4-G1-M1.3) | treatment outcome ([1]; ER or PR positive breast cancer, antihormonal therapy (tamoxifen, exemestane, letrozole or fulvestrant) + P4-G1-M1.3) | treatment outcome ([1]; ER positive, PR positive or triple negative breast cancers (or tumor types of Examples 5-10), mTOR or pan-mTOR inhibitor + P4-G1-M1.3) | treatment outcome ([1]; metastatic breast cancer, paclitaxel or eribulin + P4-G1-M1.3) | treatment outcome ([1]; postmenopausal women, ER-positive breast cancer, PI3K inhibitor (XL147 or BKM120) + P4-G1-M1.3) | treatment outcome ([1]; women with locally advanced or metastatic breast cancer, docetaxel + P4-G1-M1.3) | treatment outcome [2]
inhibits downstream signaling: downstream signaling (pErbB3, pAkt Ser473, pERK1/2) ([3]; combination of 500 nM P4-G1-M1.3 and 504 sorafenib)
downregulation of ErbB3: ErbB3 level ([3]; combination of 500 nM P4-G1-M1.3 and sorafenib)
